Numbering of substitutions follows the chain as printed.
B1: NRC3_wobSeed88_DR3_G24A_o1 (dsDNA)
DNA 1: GCTAGCCTAGGTCATGCGGGCCAATATAGTGTCGGCGCGATTGACAGCGTAGAATGAAGG
DNA 2: CCTTCATTCTACGCTGTCAATCGCGCCGACACTATATTGGCCCGCATGACCTAGGCTAGC
B2: NRC3_wobSeed113_DR4_A24C_o1 (dsDNA)
DNA 1: GCATATGTAGGTTAGCTGGGGTCCTTCAGACTAGGCGCGATTGACAGCGTAGAATGAAGG
DNA 2: CCTTCATTCTACGCTGTCAATCGCGCCTAGTCTGAAGGACCCCAGCTAACCTACATATGC
B3: NRC3_wobSeed128_DR5_G27T_o1 (dsDNA)
DNA 1: GCTCTTGTAGATCAACAGGAGGTTAATAAAGATCGAGCGATTGACAGCGTAGAATGAAGG
DNA 2: CCTTCATTCTACGCTGTCAATCGCTCGATCTTTATTAACCTCCTGTTGATCTACAAGAGC
B4: NRC3_wobSeed73_DR3_A18T_o1 (dsDNA)
DNA 1: GCCAAACTAGGTCACAGTGGTCAAAGTCCGTGCGTAGCGATTGACAGCGTAGAATGAAGG
DNA 2: CCTTCATTCTACGCTGTCAATCGCTACGCACGGACTTTGACCACTGTGACCTAGTTTGGC
B5: NRC3_wobSeed74_DR3_C26A_o1 (dsDNA)
DNA 1: GCTCTAGTTGGTCACGGAGGTCACAAACGACGGGTAGCGATTGACAGCGTAGAATGAAGG
DNA 2: CCTTCATTCTACGCTGTCAATCGCTACCCGTCGTTTGTGACCTCCGTGACCAACTAGAGC
B6: NRC3_wobSeed74_DR3_A23C_o1 (dsDNA)
DNA 1: B5 DNA 1 with A23C, A26C
DNA 2: B5 DNA 2 with T35G, T38G
B7: NRC3_wobSeed74_DR3_T21A_o1 (dsDNA)
DNA 1: B5 DNA 1 with T21A, A26C
DNA 2: B5 DNA 2 with T35G, A40T
B8: NRC3_wobSeed100_DR4_T22C_o1 (dsDNA)
DNA 1: GCCCTACTGGGCCACGAAAGGCCATTGATTCAGTGAGCGATTGACAGCGTAGAATGAAGG
DNA 2: CCTTCATTCTACGCTGTCAATCGCTCACTGAATCAATGGCCTTTCGTGGCCCAGTAGGGC
B9: NRC3_wobSeed140_DR5_T15A_o1 (dsDNA)
DNA 1: GCAGAATGAGGTTAAACGTAGATCAGGGAAGAAAGTGCGATTGACAGCGTAGAATGAAGG
DNA 2: CCTTCATTCTACGCTGTCAATCGCACTTTCTTCCCTGATCTACGTTTAACCTCATTCTGC
B10: NRC3_wobSeed77_DR3_A14T_o1 (dsDNA)
DNA 1: GCACTTACGGGTCTACGAGGTTATAGCACGCGTATAGCGATTGACAGCGTAGAATGAAGG
DNA 2: CCTTCATTCTACGCTGTCAATCGCTATACGCGTGCTATAACCTCGTAGACCCGTAAGTGC
B11: NRC3_wobSeed77_DR3_G11C_o1 (dsDNA)
DNA 1: B10 DNA 1 with G11C, T14A
DNA 2: B10 DNA 2 with A47T, C50G
B12: NRC3_wobSeed28_DR1_C20G_o1 (dsDNA)
DNA 1: GCCCTACTGGGCCAAAGGTGATTGATTCCAATGCTCGCGATTGACAGCGTAGAATGAAGG
DNA 2: CCTTCATTCTACGCTGTCAATCGCGAGCATTGGAATCAATCACCTTTGGCCCAGTAGGGC
B13: NRC3_wobSeed64_DR2_A4T_o1 (dsDNA)
DNA 1: GCTTGCCTAGGTCATTGGGCCAGTATAGTACGCATCGCGATTGACAGCGTAGAATGAAGG
DNA 2: CCTTCATTCTACGCTGTCAATCGCGATGCGTACTATACTGGCCCAATGACCTAGGCAAGC
B14: NRC3_wobSeed136_DR5_A14G_o1 (dsDNA)
DNA 1: GCTAGCCTAGGTCGTTCAGGGGCCAGTATAGAAAGCGCGATTGACAGCGTAGAATGAAGG
DNA 2: CCTTCATTCTACGCTGTCAATCGCGCTTTCTATACTGGCCCCTGAACGACCTAGGCTAGC
B15: NRC3_wobSeed34_DR1_G14T_o1 (dsDNA)
DNA 1: GCATCGAAAGGTCTAAGGTGAGTATACCCACCCGAAGCGATTGACAGCGTAGAATGAAGG
DNA 2: CCTTCATTCTACGCTGTCAATCGCTTCGGGTGGGTATACTCACCTTAGACCTTTCGATGC
B16: NRC3_wobSeed34_DR1_G14C_o1 (dsDNA)
DNA 1: B15 DNA 1 with T14C
DNA 2: B15 DNA 2 with A47G
B17: NRC3_wobSeed66_DR2_C13G_o1 (dsDNA)
DNA 1: GCAATACAGGGTGACTAGGCCAGAGTAGGTACGAATGCGATTGACAGCGTAGAATGAAGG
DNA 2: CCTTCATTCTACGCTGTCAATCGCATTCGTACCTACTCTGGCCTAGTCACCCTGTATTGC
B18: NRC3_wobSeed65_DR2_G11T_o1 (dsDNA)
DNA 1: GCATATGTAGTTTATCGGGTCATTCAGTTTGCGCATGCGATTGACAGCGTAGAATGAAGG
DNA 2: CCTTCATTCTACGCTGTCAATCGCATGCGCAAACTGAATGACCCGATAAACTACATATGC
B19: NRC3_wobSeed65_DR2_T24A_o1 (dsDNA)
DNA 1: B18 DNA 1 with T11G, T24A
DNA 2: B18 DNA 2 with A37T, A50C
B20: NRC3_random_hg19_368_o1 (dsDNA)
DNA 1: GCTAAGAAACTCAGTCAACATGATATCTATGGCTAAGCGATTGACAGCGTAGAATGAAGG
DNA 2: CCTTCATTCTACGCTGTCAATCGCTTAGCCATAGATATCATGTTGACTGAGTTTCTTAGC
B21: NRC3_wobSeed29_DR1_A14C_o1 (dsDNA)
DNA 1: GCGCTTACGGGTCCAAGGTTATAGCATGAATAGAATGCGATTGACAGCGTAGAATGAAGG
DNA 2: CCTTCATTCTACGCTGTCAATCGCATTCTATTCATGCTATAACCTTGGACCCGTAAGCGC
B22: NRC3_wobSeed110_DR4_A18T_o1 (dsDNA)
DNA 1: GCTCTGCTAGGTCAACGTTGGTCAGCTAATCTGCTAGCGATTGACAGCGTAGAATGAAGG
DNA 2: CCTTCATTCTACGCTGTCAATCGCTAGCAGATTAGCTGACCAACGTTGACCTAGCAGAGC
B23: NRC3_wobSeed116_DR4_G11A_o1 (dsDNA)
DNA 1: GCAGAATGAGATTACCAAAGATCAGGGAAACGCTTGGCGATTGACAGCGTAGAATGAAGG
DNA 2: CCTTCATTCTACGCTGTCAATCGCCAAGCGTTTCCCTGATCTTTGGTAATCTCATTCTGC
B24: NRC3_wobSeed117_DR4_G10C_o1 (dsDNA)
DNA 1: GCCGTCAAACTTCAACTAAGGTAACGTAAAGCACGCGCGATTGACAGCGTAGAATGAAGG
DNA 2: CCTTCATTCTACGCTGTCAATCGCGCGTGCTTTACGTTACCTTAGTTGAAGTTTGACGGC
B25: NRC3_wobSeed138_DR5_C7T_o1 (dsDNA)
DNA 1: GCGATATAGGGTCAGCTAGAGGCCAGAGTATGGAAAGCGATTGACAGCGTAGAATGAAGG
DNA 2: CCTTCATTCTACGCTGTCAATCGCTTTCCATACTCTGGCCTCTAGCTGACCCTATATCGC
B26: NRC3_random_hg19_497_o1 (dsDNA)
DNA 1: GCGGGTTTAGAGATGATTTGCTGTGACAGTGTTGAGGCGATTGACAGCGTAGAATGAAGG
DNA 2: CCTTCATTCTACGCTGTCAATCGCCTCAACACTGTCACAGCAAATCATCTCTAAACCCGC
B27: NRC3_wobSeed40_DR1_A24G_o1 (dsDNA)
DNA 1: GCTAGCCTAGGTCATGGGCCAGTGTACCACGCGAACGCGATTGACAGCGTAGAATGAAGG
DNA 2: CCTTCATTCTACGCTGTCAATCGCGTTCGCGTGGTACACTGGCCCATGACCTAGGCTAGC
B28: NRC3_wobSeed40_DR1_C13T_o1 (dsDNA)
DNA 1: B27 DNA 1 with C13T, G24A
DNA 2: B27 DNA 2 with C37T, G48A
B29: NRC3_wobSeed40_DR1_A4C_o1 (dsDNA)
DNA 1: B27 DNA 1 with A4C, G24A
DNA 2: B27 DNA 2 with C37T, T57G
B30: NRC3_wobSeed141_DR5_C13G_o1 (dsDNA)
DNA 1: GCAGTCAAAGTTGAGGACGAGGTAACGTAAAGCACGGCGATTGACAGCGTAGAATGAAGG
DNA 2: CCTTCATTCTACGCTGTCAATCGCCGTGCTTTACGTTACCTCGTCCTCAACTTTGACTGC
B31: NRC3_wobSeed104_DR4_A14G_o1 (dsDNA)
DNA 1: GCTCTTGTAGATCGATAGAGGTTAAGAAAGTGCGCTGCGATTGACAGCGTAGAATGAAGG
DNA 2: CCTTCATTCTACGCTGTCAATCGCAGCGCACTTTCTTAACCTCTATCGATCTACAAGAGC
B32: NRC3_wobSeed104_DR4_G20A_o1 (dsDNA)
DNA 1: B31 DNA 1 with G14A, G20A
DNA 2: B31 DNA 2 with C41T, C47T
B33: NRC3_wobSeed102_DR4_G19A_o1 (dsDNA)
DNA 1: GCCCTAGCAGGCCAATCTAGGTCACTCAAGGCTTGAGCGATTGACAGCGTAGAATGAAGG
DNA 2: CCTTCATTCTACGCTGTCAATCGCTCAAGCCTTGAGTGACCTAGATTGGCCTGCTAGGGC

Each binder was assayed against LXRa:RXRa (Homo sapiens, UniProt Q13133;P19793 full;full) (assay: no ligand; PBM; 270 nM : 90 nM RXRa; PBS pH 7.4, 2% milk, 0.02% Triton X-100, 1 mM DTT, BSA, 0.4 mg/ml salmon testes DNA). Conditions: tags: His kept;His cleaved; copies: 1;1; label: surface-attached array probe.
Sequence of LXRa:RXRa (Q13133 whole entry, chain 1 of 2): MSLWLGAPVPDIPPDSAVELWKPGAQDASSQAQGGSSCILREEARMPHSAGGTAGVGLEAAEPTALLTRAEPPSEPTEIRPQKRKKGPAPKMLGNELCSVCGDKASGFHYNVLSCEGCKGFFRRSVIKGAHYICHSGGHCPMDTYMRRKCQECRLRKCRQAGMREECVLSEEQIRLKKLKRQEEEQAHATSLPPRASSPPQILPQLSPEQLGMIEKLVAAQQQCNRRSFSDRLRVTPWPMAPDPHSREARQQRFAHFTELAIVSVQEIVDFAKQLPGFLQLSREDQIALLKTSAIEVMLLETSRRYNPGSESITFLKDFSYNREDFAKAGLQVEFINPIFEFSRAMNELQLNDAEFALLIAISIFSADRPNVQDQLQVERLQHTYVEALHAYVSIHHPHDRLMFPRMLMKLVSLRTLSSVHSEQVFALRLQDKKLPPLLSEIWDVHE
Sequence of LXRa:RXRa (P19793 whole entry, chain 2 of 2): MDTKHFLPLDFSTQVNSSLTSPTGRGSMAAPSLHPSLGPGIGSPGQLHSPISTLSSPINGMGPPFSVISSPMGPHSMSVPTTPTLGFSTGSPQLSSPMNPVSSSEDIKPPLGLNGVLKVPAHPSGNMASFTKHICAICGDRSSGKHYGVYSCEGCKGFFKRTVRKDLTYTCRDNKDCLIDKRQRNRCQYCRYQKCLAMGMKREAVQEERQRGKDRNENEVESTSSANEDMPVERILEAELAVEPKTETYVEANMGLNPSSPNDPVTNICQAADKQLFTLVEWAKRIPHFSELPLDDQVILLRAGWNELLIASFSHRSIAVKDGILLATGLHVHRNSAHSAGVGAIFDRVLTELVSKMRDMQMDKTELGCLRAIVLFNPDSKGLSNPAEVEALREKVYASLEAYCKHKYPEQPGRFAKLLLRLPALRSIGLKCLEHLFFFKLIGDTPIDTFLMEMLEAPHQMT
Summary of the method: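 Regression normalization was applied to scanned fluorescence from custom Agilent 4×180K protein-binding microarrays. Before scanning, arrays were incubated 1 h with ligand-free nuclear receptor dimers, and binding was detected with antibodies against each partner (one per run). Binding z-scores use the random background probes as reference.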

Row | Binder | binding signal
1 | B1 | 3.29 PBM z-score against 500 random probes
2 | B2 | 0.37 PBM z-score against 500 random probes
3 | B3 | 3.26 PBM z-score against 500 random probes
4 | B4 | 3.02 PBM z-score against 500 random probes
5 | B5 | 3.23 PBM z-score against 500 random probes
6 | B6 | 0.41 PBM z-score against 500 random probes
7 | B7 | 0.43 PBM z-score against 500 random probes
8 | B8 | -0.05 PBM z-score against 500 random probes
9 | B9 | 3.17 PBM z-score against 500 random probes
10 | B10 | 0.49 PBM z-score against 500 random probes
11 | B11 | 0.33 PBM z-score against 500 random probes
12 | B12 | 0.13 PBM z-score against 500 random probes
13 | B13 | 3.21 PBM z-score against 500 random probes
14 | B14 | 0.19 PBM z-score against 500 random probes
15 | B15 | 0.34 PBM z-score against 500 random probes
16 | B16 | 0.27 PBM z-score against 500 random probes
17 | B17 | 0.22 PBM z-score against 500 random probes

Row | Binder | binding signal
18 | B18 | 3.34 PBM z-score against 500 random probes
19 | B19 | 3.1 PBM z-score against 500 random probes
20 | B20 | 0.24 PBM z-score against 500 random probes
21 | B21 | 0.43 PBM z-score against 500 random probes
22 | B22 | 3.08 PBM z-score against 500 random probes
23 | B23 | -0.15 PBM z-score against 500 random probes
24 | B24 | 0.31 PBM z-score against 500 random probes
25 | B25 | 3.06 PBM z-score against 500 random probes
26 | B26 | 0.38 PBM z-score against 500 random probes
27 | B27 | 3.31 PBM z-score against 500 random probes
28 | B28 | 0.05 PBM z-score against 500 random probes
29 | B29 | 3.18 PBM z-score against 500 random probes
30 | B30 | -0.07 PBM z-score against 500 random probes
31 | B31 | 3.15 PBM z-score against 500 random probes
32 | B32 | 0.44 PBM z-score against 500 random probes
33 | B33 | 3 PBM z-score against 500 random probes
